The values that follow come from PMC4220489 (Nature Communications, 2014).

The target of test [1] is T1, IL-12 subunit beta (p40), as in the recombinant human IL-23 of the crystal structure (human, UniProt P29460 23-328, C-mannosylated Trp319; N-linked glycans limited by kifunensine and trimmed with EndoH).
T1 construct: signal peptide in the construct; IL-12 subunit beta (p40), human, residues 1-328, cDNA as NCBI NM_002187.2 (silent codon change at Asn248); The p40 chain of m3, written alone for the pairs of the crystal structure; also called IL-23 p40; source: HEK-293T, co-transfected with p19-His, purified as IL-23 (Talon IMAC, SEC)
T1 sequence (looked up): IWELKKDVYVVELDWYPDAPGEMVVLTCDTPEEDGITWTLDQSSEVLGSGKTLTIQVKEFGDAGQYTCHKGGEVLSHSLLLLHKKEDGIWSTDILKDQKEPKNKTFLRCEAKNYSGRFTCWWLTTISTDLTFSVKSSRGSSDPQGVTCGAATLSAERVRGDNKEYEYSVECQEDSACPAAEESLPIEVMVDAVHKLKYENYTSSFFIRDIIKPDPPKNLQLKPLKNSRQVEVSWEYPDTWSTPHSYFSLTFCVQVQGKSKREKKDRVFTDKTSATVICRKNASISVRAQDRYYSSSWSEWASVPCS
Kind of test: crystal structure; IL-23:MA12_B2fC complex, two crystal forms (PEG 3,350 with Na2SO4 or potassium formate), molecular replacement with PDB 3DUH. The note with it: both partners purified.

The target of test [2] is T2, recombinant human IL-23 (p19-His co-expressed with p40 in HEK-293T) (human, UniProt Q9NPF7 20-189; P29460 23-328, N-linked glycans limited by kifunensine and trimmed with EndoH | C-mannosylated Trp319; N-linked glycans limited by kifunensine and trimmed with EndoH).
T2 chain 1: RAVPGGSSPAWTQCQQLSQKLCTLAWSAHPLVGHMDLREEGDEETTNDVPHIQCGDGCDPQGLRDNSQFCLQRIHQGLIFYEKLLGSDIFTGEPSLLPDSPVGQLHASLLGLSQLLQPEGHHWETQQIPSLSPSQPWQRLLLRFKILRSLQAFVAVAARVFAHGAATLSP
T2 chain 2: T1 sequence (looked up)
Kind of test: SPR.

Test [3] concerns the target recombinant human IL-23 (p19-His co-expressed with p40 in HEK-293T) (human) (UniProt Q9NPF7). The test can be described thus: ITC; VP-ITC, 30 °C, 20 mM Hepes, 150 mM NaCl, pH 7.4; IL-23 4.9 μM in the cell, MA12 53.2 μM in the syringe; one binding site model; apparent.
Test [4] concerns the target T2, recombinant human IL-23 (p19-His …). The test can be described thus: SPR.

B1: IL-23 subunit alpha (p19), as in the recombinant human IL-23 of the crystal structure (natural protein, UniProt Q9NPF7 20-189, looked up)
chain: T2 chain 1
modifications: N-linked glycans limited by kifunensine and trimmed with EndoH
notes: signal peptide in the construct; IL-23 subunit alpha (p19), human, residues 1-189, cDNA as NCBI NM_016584.2; residue numbers as in UniProt; The p19 chain of m3, written alone for the pairs of the crystal structure; also called IL-23 p19; source: HEK-293T, co-transfected with p40, purified as IL-23 (Talon IMAC, SEC)
For the molecule B1, the binding result in test [1] is listed as “binds”.

B2: MA12_B2fC Alphabody (His-tag removed, cysteine blocked) (designed binder)
chain: SIQEIQKEIAQIQAVIAGIQKYIYTMTGGSGGGSGGGSGGGSGMSIEEIQKQIAAIQCQIAAIQKQIYAMTGGSGGGSGGGSGGGSGMSIEEIQKQIAAIQEQILAIYKQIMAMVT
modifications: free cysteine blocked with iodoacetamide
For B2, the Kd amounted to 0.463 nM in test [2] and 0.35 nM in test [3]. In test [3], the stoichiometry N turned out to be 1. Moreover, in test [4], the koff was 0.000122 s⁻¹.
